Results taken from the DeepSol protein solubility set.

test: soluble on expression in E. coli; label from the status in PepcDB or PDB records

Sequence	soluble on expression in E. coli
MPPCYPFMLSWKGWARDSPGRPGGAMRAHIITYGCQMNEYDSHLVASELVSLGWELVDSVEEADFVLVNTCAVRGKPVEKVRSLLGQLRKEKERRGLLIGMMGCLAQLDEGQQMAKKFGVDVLLGPGALTSLPEALKANERFWDLTFREDVLDYIPPPPKGALSAHVTIIRGCNHHCTYCIVPTTRGPEVSRHPDLILKEIELLKQAGVVEVTLLGQNVNSYGKDQPGFPSFAELLRMVGGMGIPRVRFLTSHPVNFTDDIIEAIAETPAICRYIHLPVQSGSDRVLRRMAREYRRAHYLERIRKIREALPDAVLSTDIIVGFPGETEEDFQETLSLYDEVGYDQAYMFIYSPRPGTPAYKHFQDLPREVKVERLMRLIEKQKEWSYRRNLEWVGKTVEVLVRGEAKEEGFVQGHDRGNHPVLVPASQAPVPGLYQVEIKQATPHLLFGEVVGAEAPAPIPLPVA	soluble
MSGDRDDPRYPYPKDDAELRRRLTPMQYEVTQHAATEPPFTGEYTDTEDAGIYHCVVCGTALFESGAKYHSGCGWPSYFKPIDGEVIDEKMDYTHGMTRVEVRCNQCGAHLGHVFEDGPRDKTGLRYCINSAALNFEAKPERK	not soluble
GPGSMTVVTTESGLKYEDLTEGSGAEARAGQTVSVHYTGWLTDGQKFDSSKDRNDPFAFVLGGGMVIKGWDEGVQGMKVGGVRRLTIPPQLGYGARGAGGVIPPNATLVFEVELLDV	soluble
MPVAISLPTSSTSHFFPRRRGHANHRYQRFSGAQSSTEDPYIRKNQTGVIIIGAGLAGLAAANQLTSKRIPFLLLEASDGVGGRVRTDIVDGFFLDRGFQIFITAYPEAKKLLDYEALDLQRFYAGAKVFYGGKFHTVADPLRHFWDSVASLANPIGSVVDKGLIALTRARVLIKSDEEILTAADEVPTIDLLRKIGFSETILDRFFRPFFGGIFFDRDLETTSKLFDFVFRCLALGENTLPAMGIGEISNQLAAKLPAKSVLLNTRVASIEYPNGSGSDPPSVRLQDGSVMKAELGVIIAVEQPEVNKLLDGIRDPVITKPARSTICLYFTAEPNQIPVQDPVLFLNGSNSGIINNMFFATNVARTYAPPGKALVSVSLIGLFEDRTDDDLAAEVLRELSGWFGESPVMSWKHLKTYRIQFAQPNQCPPTDLVKSPRVGSGLYLSGDYMTSATFDGALVSGRRAVEVLLRETGLIK	soluble
MKKDWQEQLPLNHIRDIKTVSGGDVNEAFKVTTEDDVYFLLVQRNRDKSFYAAEIAGLNAFEEAGVTAPHVIDSGEINGDAFLILSYLDEGTTGSQRELGQLVAKMHSQQQSDGKFGFDLPHEGGDISFDNTWSDSWIEIFVERRMDHLRDELMRKGLWNDEDNKVYEQVRTVMVNELENHNSNPSLLHGDLWGGNYMFLTDGSPALFDPAPFYGDREFDLGITTVFGGFTREFYDEYEKHYPLGKGSRKRLEFYRLYLFMVHLLKFGGMYASSVNRSMDEILALEHHHHHH	soluble
MGSDKIHHHHHHMEQKLSESEQYLWHFIETHILEIPDYSIVKLSERANVSTATIVRTMKKKGYEGFTSFKHHLKDKENQNINFSALEKVDRGIRTAILKNEEEVTRTINMIEIGNIEDAIQKIKASRRIIIFARGFSELIAQEMMVKFQLAGKYCELHTDPEIIKNISKKLSKKDVALFVSLNGETQELVVAGKNCYDSEIGTILLTASKHSSLMKYIEIPFVGFKSEGSFFPDYEVRSRLPLSILARILLDAYALRTTT	not soluble
MPKKRTPYETWRKNIRPIIWKRDNKQCIRCKKTVLLSECHIDHIISGLHGDNRLQNLRTLCRRCHVLRSDRLHRGMIAKALKDGVITADWRQYVWEEESLLKRLEHHHHHH	not soluble
MGSDKIHHHHHHMLFANSLENQLQQWNEVISKQPNNPNAYIRRGMVQFQLAKIEESIDDFDTAEKLDNRIKPYLWQRGLSYYYADRFAEGAQQFEIDLTVNSQDVEETVWRYLCMARLVGVTEARNNLLTVKNDPRLIMRSVYDLFAGHCTPDNVFNIGQTEGNKGKFYSHLYLGLYYEAENNLPLAQEYIVKAADKYKLDDYMWYLAQVHKKLRGWM	not soluble
MQICQNPSCSNPFNPDGNRFCMSCGQSNFGKLLRNRYRVLGLLGEGGFSKTYAAEDADRLDAPCVIKQFFPQIQGTGQRSKAAEFFKEEAFRLYELGENHTQIPRLLAYFEQGSSLYLVQEFIKGLTLLQEVQQEPFNEEKIRQLLIDLLPVLDFVHFHHVIHRDIKPENIIRRDGDGKLVLIDFGGAKQVTQTSIARQATAIYTLGYAPTEQMAGFACHASDLYALGVTCVRLLTQCLPQQNLYGHIDDGLYDPMNGKWLWQEYLQDRGITISENLSQILDKLLKHLPSERYQSAAEVLHDLQVFTAIVEETQILPNTQTTLVPLAPATQRTKRPLPPLQTFEYEVVTVDTAGRIVNRDRTNTQILVEQLNKDITLEMLSIPGGAYLMGSPNFEGDADERPQHQVAIAPFFMGKYPVTQAQWRAVAGLPKIKQALNPYPSKYKGQNRPVENVSWHEVLEFCARLSEKTGREYRLPSEAEWEYACRAGTTTSFHFGETITPDLANFSDSDIHNIEAKTRYRKETTDVGNFRVANAFGLYDMHGLVWEWCADPWHNNYNGAPTDGSVWEAGGDIYRRVLRGGSWNFGAELCRSASRSWNESDGGLRICGFRVVFSAGLEHHHHHH	soluble
MTQPAIQLTEYQRKWIEDKSRFKISLKARQTGFSFAVSLEVVLDAVERRTTWVLLSRGERQSKELMEKVAMHARAIGVACEELETTFKIDDKDIKQLEVRFPNGSKVIGLPANPDTARGFSGNVVLDEFAFHADSRKIWTALYPTITRGYKIRVISTPNGKSGKFYDLWMDNTGTWSKHFVDIYMAKEQGLDIDIDELRKGCESEDDWLQEFCCEFIDENGALLPYELITPCETDEATFTLPEDFTPQGDLTLGVDIGRKRDLTVMWVLEYTGTLYWTRAIHILEKQKFSVQREQLFTYLSMPRMRRACIDATGIGMQLAEEAVEAFGSKVEAVEFTGPVKQELAITQRRVFEDRAVRIPIDRVLRNDLHSVQKITTAAGNIRYAAERSEHGHADRFWALALALHAAINNPFVPLETKVARHSTMRRAMEGYG	not soluble
MLPHTGLFLLGKVALQMRIRRRLKQGVIMAKTNNKPETAETAAPSFEDIKAELDAVQAELAAARNDVEMLTTALEKAEDDKKALSAELAELKVQHTQRAADALADSRDVMLVSTGADGKEFWRGGLLFDGGWREVKRAEVGEAVWKAICAEPMLQRKAVE	not soluble
VATLNESIEAGLEPGAVALILEAFPIEDRVRLWRALPLELHIDVLTEMRADVRFSIINALSEVELKLTLAKLDNLSLIEWADSLPESIINEALALIEKDELELYDQANEYEDDELGRWAERKIITLPFNITVGTAKQLMERYSYDTPQQVYLINRNKQFRGAVNYYEILRSDSGVRLKTLEIETVTVLDSKMTLPEAVEALEHSALPALPVTDADQTLIGEVDWQFALSTQREIYEARLMAGTGMDEGDDLFAPVLKSSQKRGV	not soluble
GPGSMPSLNFFLADESRLESSRDDSTAEVAHFTPSQHALRRILISTAMANKSLEYVQGMNEYVAHLLYAFAKGKASNLTASVEADTFFCFQTLLSYLGDDFCRSFDFDAACGLTSTMRLFDNVLRFFDPSLFQHLEYLGINAEHYALRWIMLLFTQEFNIADGLRVWDFLLSFGDEIRNAAFFVAAAMCHHLRSSILSGEAMSDVLPLLQEYPAGDVNLFLRIALKWIVKFDFDLLHELKPLSPEGVQALRCSRGLEGGMNFVQVMQSWVPSIF	not soluble
SWMANQFFLLEEYTGSDYQYVGKLHSDQDRGDGSLKYILSGDGAGDLFIINENTGDIQATKRLDREEKPVYILRAQAVNRRTGRPVEPESEFIIKIHDINDNEPIFTKDVYTATVPEMADVGTFVVQVTATDADDPTYGNSAKVVYSILQGQPYFSVESETGIIKTALLNMDRENREQYQVVIQAKDMGGQMGGLSGTTTVNITLTD	soluble
MEYDVYVRVSKEDVHLLNYLLEVEEHMFNIRKYEDGVLKIITPFPEEAIKLLEGCKEMVDLEILEVKENPGEA	soluble
AIELVPEHQTVPVSIGVPATLRCSMKGEAIGNYYINWYRKTQGNTMTFIYREKDIYGPGFKDNFQGDIDIAKNLAVLKILAPSERDEGSYYCACDTLGMGGEYTDKLIFGKGTRVTVEPRSQPHTKPSVFVMKNGTNVACLVKEFYPKDIRINLVSSKKITEFDPAIVISPSGKYNAVKLGKYEDSNSVTCSVQHDNKTVHSTDFEVKTDSTDHVKPKETENTKQPSKS	soluble
